B1: HDV Ribozyme (parent)
chain: GGCCGGCAUGGUCCCAGCCUCCUCGCUGGCGCCGGCUGGGCAACAUUCCGAGGGGACCGUCCCCUCGGUAAUGGCGAAUGGGACCCA

Variants of: B1
Assay: self-cleavage, relative activity (ratio to wild type); higher = more cleavage; co-transcriptional

Variant	self-cleavage
GGGCGGCAUGGUCCCAGCCUCCUCGCUGGCGCCGGCUGGGCAACAUUCCGAGGGGACCCUCCCCUCGGUAAUGGCGAAUGGGACCCA	0.903
GGGCGGCUUGGUCCCAGCCUCCUCGCUGGCGCCGGCUGGGCAACAUUCCGAGGGGACCGUCCCCUCGGUAAUGGCGAAUGGGACCCA	0.376
GGGCGGCGUGGUCCCAGCCUCCUCGCUGGCGCCGGCUGGGCAACAUUCCGAGGGGACCGUCCCCUCGGUAAUGGCGAAUGGGACCCA	0.767
GGGCGGCAUUGUCCCAGCCUCCUCGCUGGCGCCGGCUGGGCAACAUUCCGAGGGGACCGUCCCCUCGGUAAUGGCGAAUGGGACCCA	0.193
GGGCGGCAUGGUCCCACCCUCCUCGCUGGCGCCGGCUGGGCAACAUUCCGAGGGGACCGUCCCCUCGGUAAUGGCGAAUGGGACCCA	0.0941
GGACGGCAUGGUCCCAGCCUCCUCGCUGGCGCCGGCAGGGCAACAUUCCGAGGGGACCGUCCCCUCGGUAAUGGCGAAUGGGACCCA	0.122
GGACGGCAGGGUCCCAGCCUCCUCGCUGGCGCCGGCUGGGCAACAUUCCGAGGGGACCGUCCCCUCGGUAAUGGCGAAUGGGACCCA	0.985
GGGCGGCAUGGUCCCAGCCUCCUCGCUGGCGCCGGCUGGGCAACAUUCCGAGGGGACCGUCCCCUCGGUAAUGGCGAAUGGGACCCG	0.708
GGGCGGCAUGGUCCCAGCCUCCUCGCUGGCGCCGGCUGGGUAACAUUCCGAGGGGACCGUCCCCUCGGUAAUGGCGAAUGGGACCCA	0.547
GGGCGGCAUGGUCCCAGCCUCCUCGCUGGCGCCGGCUGGGAAACAUUCCGAGGGGACCGUCCCCUCGGUAAUGGCGAAUGGGACCCA	0.217
GGGCGGCAUGGUCCCAGCCUCCUCGCUGGCGCCGGCUGGGCAACAUUCCGAGGGGACCGUCCCCCCGGUAAUGGCGAAUGGGACCCA	0.817
GGGCGGCAUGGUCCCAGCCUCCUCGCUGGCGCCGGCUGGGCAACAUUCCGAGGGGACCGUCCCCUCGGUAAUGGCGAAUGGGGCCCA	0.289
GGACGGCAUGGUCCCAGCCUCCUCGCUGGCGCCGGCUGGGCAACAUUCCGAGGGGACCGUCCCCUCGGUAAUGGCGAAUGUGACCCA	0.107
GGGCGGCAUGGUCCCAGCCUCCUCGCUGGCGCCGGCUGGGCCACAUUCCGAGGGGACCGUCCCCUCGGUAAUGGCGAAUGGGACCCA	0.128
GGGCGGCAUGGUCCCAGCCUCCUCGCUGGCGCCGGCUGGGCAACAUUCCGAGGGGACCGUCCCCUCGGUAAUGGCGACUGGGACCCA	0.134
GGGCGGCAUGGUCCCAGCCUCCUCGCUGGCGCCGGCUGGGCAAUAUUCCGAGGGGACCGUCCCCUCGGUAAUGGCGAAUGGGACCCA	0.156
GGGCGGCAUGGUCCCAGCCUCCUCGCUGGCGCCGGCUGGGCAACAUUCCGAGGGGACCGUCCCCUCGGUAAUGGCGAAUGAGACCCA	0.201
GGGCGGCAUGGUCCCAGCCUCCUCGCUGGCGCCGGCUGGGCAACAUUCCGAGGGGACCGUCCCCUCGGUAAUGGCGAAUGCGACCCA	0.0831
GGGCGGCAUGGUCCCAGCCUCCUCGCUGGCGCCGGCUGGGCAACAUUCCGAGGGGACCGUCCCCUCGGUAAUGGCGAAUGUGACCCA	0.185
GGACGGCAUGGUCCCAGCCUCCUCGCUGGCGCCGGCUGGGCAACAUUCCGAGGGGACCGUCCCCUCGGUAAUGGCGAAUGGAACCCA	0.0811
GGACGGCAUGGUCCCAGCCUCCUCGCUGGCGCCGGCUGGGCAACAUUCCGAGGGGACCGUCCCCUCGGUAAUGGCGAAUCGGACCCA	0.111
GGGCGGCAUGGUCCCAGCCUCCUCGCUGGCGCCGGCUGGGCAACAUUCCCAGGGGACCGUCCCCUCGGUAAUGGCGAAUGGGACCCA	0.475

Variant	self-cleavage
GGGCGGCAUGGUCCCAGCCUCCUCGCUGGCGCCGGCUGGGCAACAUUCCGUGGGGACCGUCCCCUCGGUAAUGGCGAAUGGGACCCA	0.768
GGGCGGCAUGGUCCCAGCCUCCUCGCUGGCGCCGGCUGGGCAACAUUCCGCGGGGACCGUCCCCUCGGUAAUGGCGAAUGGGACCCA	0.779
GGGUGGCAUGGUCCCAGCCUCCUCGCUGGCGCCGGCUGGGCAACAUUCCGAGGGGACCGUCCCCUCGGUAAUGGCGAAUGGGACCCA	0.0171
GGGCGGCAUGGUCCCAGCCUCCUCGCUGUCGCCGGCUGGGCAACAUUCCGAGGGGACCGUCCCCUCGGUAAUGGCGAAUGGGACCCA	0.0656
GGGCGGCAUGGUCCCAGCCUCCUCGCUGGCGCCGGCUGGGCAACAUUCCGAGGGGACCGUCCCCUCGGUCAUGGCGAAUGGGACCCA	0.508
GGGCGGCAUGGUCCCAGCCUCCUCGCUGGCGCCGGCUGGGCAACAUUCCGACGGGACCGUCCCCUCGGUAAUGGCGAAUGGGACCCA	0.658
GGGCGGCAUGGUCCCAGCCUCCUCGCUGGCGCCGGCUGGGCAACAUUCCGAUGGGACCGUCCCCUCGGUAAUGGCGAAUGGGACCCA	0.691
GGGCGGCAUGGUCCCAGCCUCCUCGCUGGCGCCGGCUGGGCAACAUUCCGAGGGGACCGUCCCCUCGGUAAUGGUGAAUGGGACCCA	0.0863
GGGCGGCAUGGUCCCAGCCUCCUCGCUGGCGCCGGCUGGGCAACAUUCCGAGGGGACCGUCCCCUCGGUAAUGCCGAAUGGGACCCA	0.0779
GGGCGGCAUGGUCCCAGCCUCCUCGCUGGCGCCGGCUGGGCAACAUUCCGAGGGGACCGUCCCCUCGGUAAUGUCGAAUGGGACCCA	0.189
GGACGGCAUGGUCCCAGCCUCCACGCUGGCGCCGGCUGGGCAACAUUCCGAGGGGACCGUCCCCUCGGUAAUGGCGAAUGGGACCCA	0.475
GGGCGGCAUGGUCCCAGCCACCUCGCUGGCGCCGGCUGGGCAACAUUCCGAGGGGACCGUCCCCUCGGUAAUGGCGAAUGGGACCCA	0.0755
GGGCGGCAUGGUCCCAGCCGCCUCGCUGGCGCCGGCUGGGCAACAUUCCGAGGGGACCGUCCCCUCGGUAAUGGCGAAUGGGACCCA	0
GGGCGGCAUGGUCCCAGCCUCCUCGCUGGCGCCGGCUGGGCAGCAUUCCGAGGGGACCGUCCCCUCGGUAAUGGCGAAUGGGACCCA	0.125
GGGCGGCAUGGUCCCAGCCUCCUCGCUGGCGCCGGCUGGGCAACAUUCCGAGGGGACCGUCCCCUCUGUAAUGGCGAAUGGGACCCA	0.626
GGGCGGGAUGGUCCCAGCCUCCUCGCUGGCGCCGGCUGGGCAACAUUCCGAGGGGACCGUCCCCUCGGUAAUGGCGAAUGGGACCCA	0.0244
GGGCGGUAUGGUCCCAGCCUCCUCGCUGGCGCCGGCUGGGCAACAUUCCGAGGGGACCGUCCCCUCGGUAAUGGCGAAUGGGACCCA	0.226
GGGCGGCAUGGCCCCAGCCUCCUCGCUGGCGCCGGCUGGGCAACAUUCCGAGGGGACCGUCCCCUCGGUAAUGGCGAAUGGGACCCA	0
GGGCGGCAUGGUCCCAGCCUCCUCGCUGGCGCCGGCUGGGCAACAUUCCGAGGGGACCGUCCCCUCGGUAAUGGCGAAUGGGACCUA	0.885
GGGCGGCAUGGUCCCAGCCUCCUCGCUGGCGCCGGCUGGGCAACAUUCGGAGGGGACCGUCCCCUCGGUAAUGGCGAAUGGGACCCA	0.523
GGACGGCAUGGUCCCAGCCUCCUCGCUGGCGCCGGCUGGGCAACAUUCCGAGGGGACCGACCCCUCGGUAAUGGCGAAUGGGACCCA	0.611
GGGCGGCAUGAUCCCAGCCUCCUCGCUGGCGCCGGCUGGGCAACAUUCCGAGGGGACCGUCCCCUCGGUAAUGGCGAAUGGGACCCA	0.144

Variant	self-cleavage
GGGCGGCAUGCUCCCAGCCUCCUCGCUGGCGCCGGCUGGGCAACAUUCCGAGGGGACCGUCCCCUCGGUAAUGGCGAAUGGGACCCA	0.225
GGGCGGCAUGGUCCCAGCCUCCUCGCGGGCGCCGGCUGGGCAACAUUCCGAGGGGACCGUCCCCUCGGUAAUGGCGAAUGGGACCCA	0.479
GGGCGGCAUGGUCCGAGCCUCCUCGCUGGCGCCGGCUGGGCAACAUUCCGAGGGGACCGUCCCCUCGGUAAUGGCGAAUGGGACCCA	0.266
GGGCGGCAUGGUCCAAGCCUCCUCGCUGGCGCCGGCUGGGCAACAUUCCGAGGGGACCGUCCCCUCGGUAAUGGCGAAUGGGACCCA	0.293
GGGCGGCAUGGUCCCAGCCUCCUCGAUGGCGCCGGCUGGGCAACAUUCCGAGGGGACCGUCCCCUCGGUAAUGGCGAAUGGGACCCA	0.669
GGGCGGCAUGGUCCCAGCCUCCUCGUUGGCGCCGGCUGGGCAACAUUCCGAGGGGACCGUCCCCUCGGUAAUGGCGAAUGGGACCCA	1.2
GGACGGCAUGGUCCCAGCCUCCUCGCAGGCGCCGGCUGGGCAACAUUCCGAGGGGACCGUCCCCUCGGUAAUGGCGAAUGGGACCCA	0.306
GGACGGCAUGGUCCCAGCCUCCUCGCGGGCGCCGGCUGGGCAACAUUCCGAGGGGACCGUCCCCUCGGUAAUGGCGAAUGGGACCCA	0.322
GGGCGACAUGGUCCCAGCCUCCUCGCUGGCGCCGGCUGGGCAACAUUCCGAGGGGACCGUCCCCUCGGUAAUGGCGAAUGGGACCCA	0.0923
GGGCGGCAUGGUCCCAGCCUCCUCGCUGGCGCCGGCUGGGCAACAUUCCGAGGGGACCGUCCCCUCGGGAAUGGCGAAUGGGACCCA	0.658
GGGCGGCAUGGUCCCAGCCUCCUCGCUGGCGCCGCCUGGGCAACAUUCCGAGGGGACCGUCCCCUCGGUAAUGGCGAAUGGGACCCA	1.48
GGACGGCAUGGUCCCAGCCUCCUCGCUGGCGCCGGCUGGGCAACAUUCCGAGGGGACCGUCCCCUCGGUAAUGGCAAAUGGGACCCA	0.783
GGGCGGCAUGGUCCCAGCCUCCUCGCUGGCGCCGGCUGGGCAACAUUCCGAGGGCACCGUCCCCUCGGUAAUGGCGAAUGGGACCCA	0.682
GGGCGGCAUGGUCCCAGCCUCCUCGCUGGCGCCGGCUGGGCAACAUUCCGAGGGGCCCGUCCCCUCGGUAAUGGCGAAUGGGACCCA	0.681
GGGCGGCAUGGUCCCAGCCUCCUCGCUGGCGCCGGCUGGGCAACAUUCCGAGGGGGCCGUCCCCUCGGUAAUGGCGAAUGGGACCCA	0.692
GGGCGGCAUGGUCCCAGCCUCCUCGCUGGCGCCGGCUGGGCAACAUUCCGAGGGGACCGUCUCCUCGGUAAUGGCGAAUGGGACCCA	0.822
GGGCGGCAUGGUCCCAGCCUCCUCGCUGGCGCCGGCUGGGCAACAUUCCGAGAGGACCGUCCCCUCGGUAAUGGCGAAUGGGACCCA	0.742
GGGCGGCAUGGUCCCAGCCUCCUCGCUGGCGCCGGCUGGGCAACAUUCCGAGUGGACCGUCCCCUCGGUAAUGGCGAAUGGGACCCA	0.549
GGGCGGCAUGGUCCCAGCCUCCUCGCUCGCGCCGGCUGGGCAACAUUCCGAGGGGACCGUCCCCUCGGUAAUGGCGAAUGGGACCCA	0.107
GGACGGCAUGGUCCCAGCCUCCUCGCUGGCGCCGGCUGGGCAACACUCCGAGGGGACCGUCCCCUCGGUAAUGGCGAAUGGGACCCA	0.173

— the RNAGym collection of RNA variant scans (doi:10.7554/elife.80360)
